Assay results from US20200231670A1 (AGENSYS, published 2020).

Assays:
human Nectin-4 = target: T1, human Nectin-4 (human, UniProt Q96NY8 32-510); experiment: IHC score, FFPE xenograft AG-OV35, 2.5 µg/mL
T1 construct: As expressed in human tumour xenograft tissues, human cell lines (T47D, NCI H322M) and Rat1(E) cells engineered to overexpress Nectin-4; Tested as FFPE sections (IHC) or as reduced lysates (Western blot); also called PVRL4; poliovirus receptor-related protein 4
T1 sequence: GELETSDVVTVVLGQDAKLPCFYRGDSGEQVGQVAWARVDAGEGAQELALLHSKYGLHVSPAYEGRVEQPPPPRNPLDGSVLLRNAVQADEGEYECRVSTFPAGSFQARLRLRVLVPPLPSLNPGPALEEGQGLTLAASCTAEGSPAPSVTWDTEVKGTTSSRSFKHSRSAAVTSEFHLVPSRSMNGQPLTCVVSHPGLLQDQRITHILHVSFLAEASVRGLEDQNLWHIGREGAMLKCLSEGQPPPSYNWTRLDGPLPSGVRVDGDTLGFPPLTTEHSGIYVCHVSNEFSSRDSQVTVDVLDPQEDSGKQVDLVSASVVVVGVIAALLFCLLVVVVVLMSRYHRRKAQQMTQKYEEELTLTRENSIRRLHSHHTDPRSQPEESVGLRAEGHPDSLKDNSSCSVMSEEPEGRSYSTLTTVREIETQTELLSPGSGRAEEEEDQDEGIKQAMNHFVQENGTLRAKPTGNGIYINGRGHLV
Experimental: (§1) IHC staining was performed according to the following exemplary protocols. Briefly, an indirect IHC technique was used to detect Nectin-4 in the IHC assay. The samples were fixed in 10% buffered neutral formalin, processed and embedded into paraffin wax, and prepared as 4 μm tissue sections. After deparaffinization and re-hydration, sections were treated for antigen retrieval. The antigen epitopes in Nectin-4 were retrieved, for example, by application of heat to the tissue sections in an aqueous medium, commonly referred to as a Heat-Induced Epitope Retrieval (HIER) procedure. […] The tissue sections bound with primary antibodies were washed and detected with an enzyme-labeled, e.g. peroxidase-labeled, secondary antibody. […] The stained tissue sections were then scanned, imaged, and evaluated with light microscopy, for example, using an Aperio ScanScope CS (Aperio, Vista, Calif.).
(§2) To assess the level of Nectin-4 expression in the tissue sections by the level of antibody staining, stained tissue sections were assessed, evaluated, categorized, and recorded into different categories or scores according to the intensity of the IHC staining and cancer cell positivity ratio. […] Lack of specific staining was recorded as negative (“0” or interchangeably with as “−”).

[1] = target: T2, Nectin-1 over-expressed by engineered Rat1(E) cells (UniProt Q15223 31-517, limits assumed); experiment: IHC, FFPE Rat1(E) cells expressing Nectin-1
T2 construct: whole, on cells; also called Rat1(E)-Nectin-1; Rat1(E) Nectin1
T2 sequence (looked up): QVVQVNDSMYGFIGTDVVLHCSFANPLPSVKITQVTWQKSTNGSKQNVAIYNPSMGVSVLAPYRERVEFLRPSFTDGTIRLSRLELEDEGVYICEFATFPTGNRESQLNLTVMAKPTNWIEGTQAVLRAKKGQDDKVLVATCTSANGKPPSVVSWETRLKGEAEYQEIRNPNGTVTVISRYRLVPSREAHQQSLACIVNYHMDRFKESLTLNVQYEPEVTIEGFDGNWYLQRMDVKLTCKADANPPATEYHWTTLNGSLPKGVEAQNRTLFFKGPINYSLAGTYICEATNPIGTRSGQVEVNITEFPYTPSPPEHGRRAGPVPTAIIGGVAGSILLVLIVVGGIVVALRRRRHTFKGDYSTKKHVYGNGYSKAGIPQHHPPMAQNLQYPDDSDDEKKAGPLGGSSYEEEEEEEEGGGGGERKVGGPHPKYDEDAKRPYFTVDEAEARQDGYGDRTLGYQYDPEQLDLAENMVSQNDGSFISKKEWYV

[2] = target: T3, Nectin-4 fragment V (amino acid residues 1-150 of human Nectin-4) (human, UniProt Q96NY8 32-150); experiment: Western blot of cell lysates (FIG. 13)
T3 construct: Expressed in transfected cells and tested as a reduced RIPA lysate on a Western blot; Any tag or membrane anchor of the construct is not described; also called V fragment/domain
T3 sequence: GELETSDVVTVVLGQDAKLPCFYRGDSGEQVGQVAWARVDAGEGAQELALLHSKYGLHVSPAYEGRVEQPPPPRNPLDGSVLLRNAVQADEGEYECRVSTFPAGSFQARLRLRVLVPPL
Experimental: The cells expressing various Nectin-4 fragments were cultured and lysed in RIPA buffer. […] A 1:10000 dilution of a-GAPDH antibody (Chicken pAb, Millipore) was used detect GAPDH as a loading control. Antibodies bound to the protein bands were then detected with either 1:5000 dilution of Goat-anti-Mouse antibody conjugated with IRDye 680 (Odyssey) or 1:5000 Donkey anti-a-Chicken conjugated with IRDye 800 (Odyssey) and visualized in Odyssey system.

[3] = target: T4, recombinant extracellular domain of human Nectin-4 protein (fragment aa 31-346) (human, UniProt Q96NY8 31-346); experiment: ELISA
T4 construct: Made in E. coli with a 6xHN tag from a pET vector; The primary screen used aa 31-346; The secondary screen also used a 293FT-made fragment, printed as aa 1-346 in one place and aa 1-348 in another, with a myc-his tag; also called 6xHN-tagged Nectin 4 (aa 31-346); Nectin-4 extracellular domain fragment (amino acid residues 31-346)
T4 sequence: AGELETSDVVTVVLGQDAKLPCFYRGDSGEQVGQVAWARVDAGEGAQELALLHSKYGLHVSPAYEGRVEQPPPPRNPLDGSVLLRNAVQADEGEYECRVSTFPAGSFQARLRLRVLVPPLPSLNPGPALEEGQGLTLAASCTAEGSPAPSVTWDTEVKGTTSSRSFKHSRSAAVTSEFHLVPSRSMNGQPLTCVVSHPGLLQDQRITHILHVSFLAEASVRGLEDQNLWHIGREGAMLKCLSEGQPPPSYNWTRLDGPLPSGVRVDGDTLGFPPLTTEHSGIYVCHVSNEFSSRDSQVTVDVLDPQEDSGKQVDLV

[4] = target: T5, Nectin-2 over-expressed by engineered Rat1(E) cells (UniProt Q92692 32-538, limits assumed); experiment: IHC, FFPE Rat1(E) cells expressing Nectin-2
T5 construct: whole, on cells; also called Rat1(E)-Nectin-2; Rat1(E) Nectin2
T5 sequence (looked up): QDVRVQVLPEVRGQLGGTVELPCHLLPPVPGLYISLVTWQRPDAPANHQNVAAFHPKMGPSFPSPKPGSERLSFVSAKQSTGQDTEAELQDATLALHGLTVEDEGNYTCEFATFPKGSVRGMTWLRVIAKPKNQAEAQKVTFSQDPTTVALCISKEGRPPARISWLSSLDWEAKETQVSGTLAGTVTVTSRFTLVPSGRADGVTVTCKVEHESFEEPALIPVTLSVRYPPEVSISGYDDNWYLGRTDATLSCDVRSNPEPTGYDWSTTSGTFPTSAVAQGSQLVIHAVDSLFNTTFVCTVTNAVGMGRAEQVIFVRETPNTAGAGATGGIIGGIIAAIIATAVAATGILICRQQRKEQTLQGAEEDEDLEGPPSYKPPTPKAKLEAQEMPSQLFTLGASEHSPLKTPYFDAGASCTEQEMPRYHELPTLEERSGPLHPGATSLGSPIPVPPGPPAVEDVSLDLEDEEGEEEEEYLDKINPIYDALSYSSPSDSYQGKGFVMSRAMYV
Experimental: as §1, §2

B1: M22-321b41.1 anti-Nectin-4 mouse monoclonal antibody (antibody, mouse IgG2a, kappa, V domains shown)
VH: QVQLQQSGAELARPGASVKLSCKASGYTFTTYWMQWVKQRPGQGLEWIGSIYPGDGDTRYTQKFKGKATLTADKSSSTAYIQLSTLASEDSAVYYCAREYYGLDYWGQGTTLTVSS
VL: DIVMTQAAFSNPVTLGTSASISCRSSKSLLHSNGITYLYWYLQKPGQSPQLLIYHMSNLASGVPDRFTSSGSGTDFTLRISRVEAEDVGVYYCAQNLELPFTFGGGTKLETKR
notes: Mouse IgG2a kappa from hybridoma M22-321b41.1 (ATCC PTA-124245), protein A purified; also called mAb M22-321b41.1; M22-321b1.1
binding result (human Nectin-4): binds
binding result [1]: no binding (tested: 2.5 µg/mL)
binding result [2]: binds
binding result [3]: binds
binding result [4]: no binding (tested: 2.5 µg/mL)
